# In patent US20240383988A1 (ERASCA, published 2024):
# Experiments:
# human EGFR [1] = biological target: T1, human EGFR (human, UniProt P00533 25-645); experiment: SPR, IgG; optimized variant IgG ER-2a
# T1 construct: Recombinant EGFR as used in SPR, ELISA and BLI; The phage selections used the EGFR ectodomain; also called immobilized EGFR; EGFR ectodomain (ECD)
# human EGFR [2] = biological target: T1, human EGFR; experiment: SPR with purified IgG on EGFR; column head 10^-4 (s-1)
# human EGFR [3] = biological target: T1, human EGFR; experiment: SPR with purified IgG on EGFR; column head 10^5 (s-1M-1)
# EGFR-D28 = biological target: T2, EGFR-D28 (Homo sapiens (Human), UniProt P00533 25-1210); experiment: flow cytometry on transfected cells
# T2 construct: The deletion Cys240-Cys267 must be applied to the entry
# EGFRvIII = biological target: T3, EGFRvIII (UniProt P00533 25-1210); experiment: flow cytometry on transfected cells
# T3 construct: whole, on cells; The deletion must be applied to it
# EGFR fragment D3-D4 = EGFR fragment D3-D4 (Homo sapiens (Human), UniProt P00533 334-645, limits assumed); experiment: flow cytometry on transfected HEK293T cells
# EGFR fragment D1-D2 = EGFR fragment D1-D2 (Homo sapiens (Human), UniProt P00533 25-334, limits assumed); experiment: flow cytometry on transfected HEK293T cells, saturating IgG, signal normalized
Kd (human EGFR [1]) [pM],koff (human EGFR [2]) [s⁻¹],kon (human EGFR [3]) [M⁻¹ s⁻¹],binding result (EGFR fragment D1-D2),Binder,binding result (EGFR-D28),binding result (EGFRvIII),binding result (EGFR fragment D3-D4)
280,6.1e-05,220000,–,"IgG ER-2a (antibody, V domains shown, IgG; also called Ab ER-2a) VH: EVQLVESGGGLVQPGGSLRLSCAASGFDVYYAAMHWVRQAPGKGLEWVASISPYYGYTSYADSVKGRFTISADTSKNTAYLQMNSLRAEDTAVYYCARYYHFSWHWSSFGGSYYPGMDYWGQGTLVTVSS VL: not shown",no binding (tested: saturating IgG concentrations),no binding (tested: saturating IgG concentrations),no binding (tested: saturating IgG concentrations)
–,–,–,no binding,"IgG ER-3a (antibody, V domains shown, IgG; also called Ab ER-3a) VH: EVQLVESGGGLVQPGGSLRLSCAASGFDLYSYSMHWVRQAPGKGLEWVASVSPSSGSTYYADSVKGRFTISADTSKNTAYLQMNSLRAEDTAVYYCARHWHVYPSYYWGGFDYWGQGTLVTVSS VL: not shown",–,–,–
